What all share (settings): remark: other sources report otherwise
Assay [1] concerns the target T1, full-length human KIF5B-mScarlet-StrepII (human), P33176.
T1 chain: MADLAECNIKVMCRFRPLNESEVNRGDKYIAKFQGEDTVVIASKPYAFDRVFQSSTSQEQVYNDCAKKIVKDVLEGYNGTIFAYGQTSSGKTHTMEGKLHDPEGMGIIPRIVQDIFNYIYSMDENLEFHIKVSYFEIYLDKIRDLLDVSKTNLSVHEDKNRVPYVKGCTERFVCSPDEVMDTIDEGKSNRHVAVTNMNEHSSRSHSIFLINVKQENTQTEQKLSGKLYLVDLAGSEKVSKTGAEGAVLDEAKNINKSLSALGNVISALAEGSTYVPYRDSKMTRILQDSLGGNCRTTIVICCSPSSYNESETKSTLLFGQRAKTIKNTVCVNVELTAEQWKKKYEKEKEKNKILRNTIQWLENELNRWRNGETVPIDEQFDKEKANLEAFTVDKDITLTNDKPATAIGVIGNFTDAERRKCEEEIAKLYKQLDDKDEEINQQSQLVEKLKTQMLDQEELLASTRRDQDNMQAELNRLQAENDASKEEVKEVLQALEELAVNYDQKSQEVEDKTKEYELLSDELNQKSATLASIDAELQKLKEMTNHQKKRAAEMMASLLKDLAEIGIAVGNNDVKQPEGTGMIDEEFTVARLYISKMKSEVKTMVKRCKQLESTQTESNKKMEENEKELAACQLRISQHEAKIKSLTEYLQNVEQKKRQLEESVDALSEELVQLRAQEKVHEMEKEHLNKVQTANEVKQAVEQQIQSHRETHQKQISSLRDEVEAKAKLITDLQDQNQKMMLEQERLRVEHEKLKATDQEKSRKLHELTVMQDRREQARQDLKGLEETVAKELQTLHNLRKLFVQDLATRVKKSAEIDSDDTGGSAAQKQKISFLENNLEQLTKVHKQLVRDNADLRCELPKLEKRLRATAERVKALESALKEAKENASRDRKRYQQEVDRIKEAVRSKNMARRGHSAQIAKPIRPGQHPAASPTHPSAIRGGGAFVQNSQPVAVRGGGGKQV
Briefly: SEC-MALS; purified full-length KIF5 alone; BioSep SEC-s4000 column, GF150 buffer (25 mM HEPES-KOH, 150 mM KCl, 2 mM MgCl2). Background: Size exclusion chromatography separates by hydrodynamic size, large species first.

For assay [2], the target named is T2, full-length human KIF5A-mScarlet-StrepII (human), Q12840.
T2 chain: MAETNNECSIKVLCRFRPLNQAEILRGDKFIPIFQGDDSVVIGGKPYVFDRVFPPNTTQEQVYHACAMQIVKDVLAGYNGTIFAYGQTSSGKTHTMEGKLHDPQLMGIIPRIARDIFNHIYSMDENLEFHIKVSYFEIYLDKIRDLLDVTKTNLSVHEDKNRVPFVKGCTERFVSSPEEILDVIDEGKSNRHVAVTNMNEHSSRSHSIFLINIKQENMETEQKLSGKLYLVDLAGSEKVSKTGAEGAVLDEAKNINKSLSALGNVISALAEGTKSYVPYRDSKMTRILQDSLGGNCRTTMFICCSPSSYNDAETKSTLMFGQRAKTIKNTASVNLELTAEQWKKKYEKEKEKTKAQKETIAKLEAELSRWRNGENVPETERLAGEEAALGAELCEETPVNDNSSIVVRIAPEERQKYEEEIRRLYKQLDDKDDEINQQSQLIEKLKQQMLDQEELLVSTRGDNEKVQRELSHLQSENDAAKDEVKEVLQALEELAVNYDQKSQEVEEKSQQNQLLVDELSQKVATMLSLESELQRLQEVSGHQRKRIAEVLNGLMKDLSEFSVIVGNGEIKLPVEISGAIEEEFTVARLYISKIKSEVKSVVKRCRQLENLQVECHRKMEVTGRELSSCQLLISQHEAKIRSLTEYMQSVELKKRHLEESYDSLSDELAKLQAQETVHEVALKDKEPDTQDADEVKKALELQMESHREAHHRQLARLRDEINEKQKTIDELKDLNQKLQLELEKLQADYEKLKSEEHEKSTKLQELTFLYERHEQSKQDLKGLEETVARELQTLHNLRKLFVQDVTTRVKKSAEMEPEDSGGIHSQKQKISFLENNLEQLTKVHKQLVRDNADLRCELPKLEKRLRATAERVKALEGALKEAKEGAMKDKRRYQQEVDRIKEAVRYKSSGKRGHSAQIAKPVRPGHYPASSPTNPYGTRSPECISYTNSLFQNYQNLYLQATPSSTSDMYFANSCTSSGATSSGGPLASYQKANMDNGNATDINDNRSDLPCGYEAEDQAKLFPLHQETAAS
The assay is described as above.

Assay [3] concerns the target T2, full-length human …. Briefly: single-molecule fluorescence brightness (TIRF microscopy); brightness of motile KIF5A-mScarlet molecules on microtubules, ATP.

As usually defined, the stoichiometry N is a count of units in the complex or per binding partner.

B1: full-length human KIF5B-mScarlet-StrepII, P33176 1-963 (natural protein)
chain: MADLAECNIKVMCRFRPLNESEVNRGDKYIAKFQGEDTVVIASKPYAFDRVFQSSTSQEQVYNDCAKKIVKDVLEGYNGTIFAYGQTSSGKTHTMEGKLHDPEGMGIIPRIVQDIFNYIYSMDENLEFHIKVSYFEIYLDKIRDLLDVSKTNLSVHEDKNRVPYVKGCTERFVCSPDEVMDTIDEGKSNRHVAVTNMNEHSSRSHSIFLINVKQENTQTEQKLSGKLYLVDLAGSEKVSKTGAEGAVLDEAKNINKSLSALGNVISALAEGSTYVPYRDSKMTRILQDSLGGNCRTTIVICCSPSSYNESETKSTLLFGQRAKTIKNTVCVNVELTAEQWKKKYEKEKEKNKILRNTIQWLENELNRWRNGETVPIDEQFDKEKANLEAFTVDKDITLTNDKPATAIGVIGNFTDAERRKCEEEIAKLYKQLDDKDEEINQQSQLVEKLKTQMLDQEELLASTRRDQDNMQAELNRLQAENDASKEEVKEVLQALEELAVNYDQKSQEVEDKTKEYELLSDELNQKSATLASIDAELQKLKEMTNHQKKRAAEMMASLLKDLAEIGIAVGNNDVKQPEGTGMIDEEFTVARLYISKMKSEVKTMVKRCKQLESTQTESNKKMEENEKELAACQLRISQHEAKIKSLTEYLQNVEQKKRQLEESVDALSEELVQLRAQEKVHEMEKEHLNKVQTANEVKQAVEQQIQSHRETHQKQISSLRDEVEAKAKLITDLQDQNQKMMLEQERLRVEHEKLKATDQEKSRKLHELTVMQDRREQARQDLKGLEETVAKELQTLHNLRKLFVQDLATRVKKSAEIDSDDTGGSAAQKQKISFLENNLEQLTKVHKQLVRDNADLRCELPKLEKRLRATAERVKALESALKEAKENASRDRKRYQQEVDRIKEAVRSKNMARRGHSAQIAKPIRPGQHPAASPTHPSAIRGGGAFVQNSQPVAVRGGGGKQV
Turning to B1, in assay [1], the stoichiometry N was 2.

B2: full-length human KIF5A-mScarlet-StrepII, Q12840 1-1032 (natural protein)
chain: MAETNNECSIKVLCRFRPLNQAEILRGDKFIPIFQGDDSVVIGGKPYVFDRVFPPNTTQEQVYHACAMQIVKDVLAGYNGTIFAYGQTSSGKTHTMEGKLHDPQLMGIIPRIARDIFNHIYSMDENLEFHIKVSYFEIYLDKIRDLLDVTKTNLSVHEDKNRVPFVKGCTERFVSSPEEILDVIDEGKSNRHVAVTNMNEHSSRSHSIFLINIKQENMETEQKLSGKLYLVDLAGSEKVSKTGAEGAVLDEAKNINKSLSALGNVISALAEGTKSYVPYRDSKMTRILQDSLGGNCRTTMFICCSPSSYNDAETKSTLMFGQRAKTIKNTASVNLELTAEQWKKKYEKEKEKTKAQKETIAKLEAELSRWRNGENVPETERLAGEEAALGAELCEETPVNDNSSIVVRIAPEERQKYEEEIRRLYKQLDDKDDEINQQSQLIEKLKQQMLDQEELLVSTRGDNEKVQRELSHLQSENDAAKDEVKEVLQALEELAVNYDQKSQEVEEKSQQNQLLVDELSQKVATMLSLESELQRLQEVSGHQRKRIAEVLNGLMKDLSEFSVIVGNGEIKLPVEISGAIEEEFTVARLYISKIKSEVKSVVKRCRQLENLQVECHRKMEVTGRELSSCQLLISQHEAKIRSLTEYMQSVELKKRHLEESYDSLSDELAKLQAQETVHEVALKDKEPDTQDADEVKKALELQMESHREAHHRQLARLRDEINEKQKTIDELKDLNQKLQLELEKLQADYEKLKSEEHEKSTKLQELTFLYERHEQSKQDLKGLEETVARELQTLHNLRKLFVQDVTTRVKKSAEMEPEDSGGIHSQKQKISFLENNLEQLTKVHKQLVRDNADLRCELPKLEKRLRATAERVKALEGALKEAKEGAMKDKRRYQQEVDRIKEAVRYKSSGKRGHSAQIAKPVRPGHYPASSPTNPYGTRSPECISYTNSLFQNYQNLYLQATPSSTSDMYFANSCTSSGATSSGGPLASYQKANMDNGNATDINDNRSDLPCGYEAEDQAKLFPLHQETAAS
For B2, the stoichiometry N in assay [2] and in assay [3] was 4 each time.

Source of the values: article PMC9365671.
